Patent publication EP2261242A1, “Aspartate-N-acetyltransferase enzyme, diagnostic method and therapeutic method” (UNIVERSITE CATHOLIQUE DE LOUVAIN, priority 2009, dated 2010)
Read-outs that look alike come from different tables or passages of the source. Each block holds one molecule with its values, some of them ahead of it.

Experiments:
[1] = target: T1, mouse NAT8L (Mus musculus, UniProt Q3UGX3); test: Radiochemical Asp-NAT activity assay on washed membrane pellets of HEK cells transfected with untagged mouse NAT8L; assay type: biochemical
T1 construct: expressed in transfected cells; host or cells: HEK 293T cells (pCMV5 vector); washed 16 000 x g membrane pellets of frozen-thawed extracts
T1 sequence (Q3UGX3 1-299): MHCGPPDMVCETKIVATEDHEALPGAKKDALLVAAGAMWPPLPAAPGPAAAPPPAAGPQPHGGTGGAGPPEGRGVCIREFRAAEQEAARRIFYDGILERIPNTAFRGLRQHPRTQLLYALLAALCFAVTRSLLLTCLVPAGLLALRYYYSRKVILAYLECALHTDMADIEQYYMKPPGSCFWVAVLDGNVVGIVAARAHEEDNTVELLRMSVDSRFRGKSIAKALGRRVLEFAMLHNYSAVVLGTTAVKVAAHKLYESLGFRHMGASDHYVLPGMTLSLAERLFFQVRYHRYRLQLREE
Description: After 20-40 min at 30°C, the reaction was arrested by a 5-min incubation at 80°C and 1 ml of 5 mM Hepes, pH 7.1 was added. The sample was centrifuged and the supernatant was applied on a 1-ml Dowex AG1X8 column (Cl^- form, 100-200 mesh, from Acros Organics) prepared in a Pasteur capillary pipette. […] Radioactivity was counted in the presence of Ultima Gold™ (Perkin Elmer) in a liquid scintillation counter. The kinetic studies shown in Figure 3 were performed using washed pellets, obtained by centrifuging extracts for 20 min at 16 000 x g, resuspending them in the initial volume of extraction buffer, recentrifugation and resuspension in the original volume of extraction buffer.
The Asp-NAT activity was further characterized in extracts of cells expressing wild-type mouse NAT8L. […] The kinetic studies were therefore performed on washed pellets, to eliminate soluble, potentially interfering enzymes. […] The KM values amounted to ≈ 9 and 13 µM in the presence of 0.5 and 1 mM CHAPS, respectively.

[2] = substrate: N[C@@H](CC(=O)O)C(=O)O; test: purified protein, by the assay type; details: other: substrate saturation curve; same in absence and presence of 0.5 mM CHAPS; pH 7.1
[3] = substrate: CC(=O)SCCNC(=O)CCNC(=O)[C@H](O)C(C)(C)COP(=O)(O)OP(=O)(O)OC[C@H]1O[C@@H](n2cnc3c(N)ncnc32)[C@H](O)[C@@H]1OP(=O)(O)O; test: purified protein, by the assay type; details: other: 20 µM aspartate, pH 7.1
[4] = substrate: NC(CCC(=O)O)C(=O)O; test: purified protein, by the assay type; details: other: glutamate as substrate (not shown); pH 7.1

Molecule: C[C@H](CCC(=O)NCCC[N+](C)(C)CCCS(=O)(=O)[O-])[C@H]1CC[C@H]2[C@@H]3[C@H](O)C[C@@H]4C[C@H](O)CC[C@]4(C)[C@H]3C[C@H](O)[C@]12C [CHAPS]
increase of Vmax ([1]; 0.5 mM CHAPS, saturation curve for aspartate): ≈ 30%

Ki ([1]; inhibition of incorporation of [^14C]-aspartate into NAA, competitive with respect to aspartate, 200 µM acetyl-CoA, 0.5 mM CHAPS, variable aspartate): 0.56 mM
Molecule: CC(=O)N[C@@H](CC(=O)O)C(=O)O [NAA, N-acetylaspartate]

Molecule: N[C@@H](CCC(=O)O)C(=O)O [glutamate]
Ki [1]: ~6 mM

B1: mouse NAT8L (Mus musculus) (protein)
chain: T1 sequence (Q3UGX3 1-299)
Km [2]: 90 µM | Km ([3]; in the presence of 0.5 mM CHAPS): 9 µM | Km ([3]; in the presence of 1 mM CHAPS): 13 µM | Km [4]: 5000 µM
